According to the DeepSol protein solubility set:

Assay: soluble on expression in E. coli; label from the status in PepcDB or PDB records

Row | Sequence | soluble on expression in E. coli
1 | MSSVLDVTKPDFDVEAFVVKLLREKSLDGLVKEEEEMVSAVRRLDSDVHQIVYENYNKFLTATNTVRKIQDEFTQLDSEMKSLSRSMSTISTLIGNLDGVLGEKRDDILQLGSSYKVVNSLKHIFDLPHVLRSEFDERNYGEVLRMFKLAEESLSQYKDVPTVQLVLQKSKKIYDMTENQLMDQLRNPASGAELVSEAVDLLLTIGRDEDEVQKVLLTCSEQSLRVDLKELSANHSDVLDLVDKASESFIPNLTLIATTHDRLFEDKREDLITVLKTEMNSLHALVSKVFLSSSDAKDCSIVVRALDRYFRKISTCRYVIPGLDFLPLTIELINAVSKHEIDLSLTRIKEELKNGLNEVRKALINEEKDLSALASKIEQVFVHQVKTALANLLLFTASDVTFANLPPDEFRQSFSFNAHERLLVQAFHRFSELADEYESGAGEIRFVDPRVHLVFAVALQHLSNKSAVYLLNLCREQFSLSPDDGLTDITVVMSEVKTRAQKLVRCYAEKTGLSMGETLIKGCAMLVQPAATPSAVRASVRRLVEEMNTCDSELTLLLGGDSKPKDSRVSRRPITTALDAARDSLWCERIDFHLQIHFNRASIITVIVKVVLKIFIESIRLQTYSKFGVEQVQVDCYYLQRCLAALVSDEVVVNSMVDQALSSALKRCQDPVLVHPSRLAQLCEQPPANRPSSQASSLGY | not soluble
2 | MLVDKTEFEAWMERIMGELYRISRKLDKAETREKHLNYLNGERLYDNQEVCLLLRISKRTLQRYRNNGVLKFYSIYHKTYYKESDLHEFIRNNFDENEIKRQAREDKLSESYPLPKE | not soluble
3 | MAHHHHHHMFANLDEEKKARLRERILQAAAAPPPAATPARSNSDSDGEQEVPPQHTESTKHASEQLAINAQSTDIDIANIRLFTLDELDLNQLTECKTLSLRKNLIHELSAFPQHLAGRLVELDLFDNKIRKVRDFFDSAMVPDPESGSLSKKAVPHAFYSLTKLDLSYNQLRKITGLDSLGSTLKELYLVENKIKVIEGLDSFVHLELLELGGNRIREIGSGLSNLRSLQSLWLGKNKIHSIGDSLHNLRELRKLSLQANRLTSITAEAFKEGCNPYLAELYLSENGISTIENLPLHSLHLLDFSFNPISTINEAVINPTNMPELEEFWLTDGSISDWGEVKKFCGFANTLRTIYVERNPIEQDKRYRDKVYMNLPFVTQIDSWPVVNKDNLEGDRLIQRRAS | not soluble
4 | MAQTEKLTDYVNPFVGTDGYGNVYPGAQIPFGGIQISPDTDSRFYDAASGYKYNHLTLMGFSLTHLSGTGIPDLGDFLFIPGTGEMKLEPGTHEDPDQGYRSRYSHDKEWASPNYYAVELADYGVKAEMTSGVRSGMFRFTYPESDNAFIMIDMNHTLWQSCEWSNLRMINDSTITGYKLVKGWGPERHVYFTATFSKKLEHHHHHH | not soluble
5 | MSSNECFKCGRSGHWARECPTGGGRGRGMRSRGRGGFTSDRGFQFVSSSLPDICYRCGESGHLAKDCDLQEDACYNCGRGGHIAKDCKEPKREREQCCYNCGKPGHLARDCDHADEQKCYSCGEFGHIQKDCTKVKCYRCGETGHVAINCSKTSEVNCYRCGESGHLARECTIEATA | soluble
6 | MSLKVLIKTDLVLGAPKTLRDVYIGIDEGQIKVISKEKPEDYDYAEYVIGGKNRVVAPGFVTTHSFLYLYPFRYRVFSGKANAFQLMSTLTPNDIYYFSLMGAYHLLKTGVTTVVTSGPNLDMIARAISEVGLRPVLAVGVDCPDSKEDWEREFTTLYNRWSSKNENRVILRLCSNEYSKEVFELSQQYDFPVLLERFVSLENISGNPINVIGLGGGARKDLDIIKQKGFHLASTPSYEVSQFPLSQYKPSISLDLSPTFDIRHEVSTSITRLILTPEEALNAMTIWGLLQLKYNDRGVLENGKVADLVIFEVKEPPTFPLDYESPYESIVFNLSTPETVLVSGEAILDGGVPLNIGIKHIEKAIERLEDIDKKVTRPARYMEKDEGHHHHHH | not soluble
7 | MGHHHHHHSHLEGPDCCFKSTVAAKLSKELKYPIIKGSSFELAKSGNEKLFEHFNKLADEDNVIIDRFVYSNLVYAKKFKDYSILTERQLRFIEDKIKAKAKVVYLHADPSVIKKRLRVRGDEYIEGKDIDSILELYREVMSNAGLHTYSWDTGQWSSDEIAKDI | not soluble
8 | MKISVITINYNNGEQLEATIQSVVSNVTVLRELLGEKAEYIVIDGGSVDCSVSVLQKYSEYISYWISEKDKGIYHAMNKGISVAQGEYCFFLNSGDTFYEDDTLKKALLFLKEDFVCGNAVLKYAGGINEWSAPEIVNTLFFMQRFSVCHQSLFIRTELLKSHPYNETLMIVADYEQMFYEIAVNHRSYKKIDLTICYYGCDGVSSDHEKADAEKRSVINEFRYLGYIEPDELWNVVSKLKIGTRKYRLLLSLAKCLTSSPKYWVRLEHHHHHH | soluble
9 | MSQEKTGLQRPVLAQLSPIAIRGHSDEGVKKLRRRNDDGCFGEALFKGNAPARSLLFGDDACHRRVENLYLLDNNPTNWSGIKTNLKREIPLLQDPTETFARMNKVMHQTLKYVKEVESINFSSRGVIDFNGEVMEDHQRIFLSVCTSVFANFSFSCQMDVEKLLSFLMALFENYSKENAYHNALHAADSVQMLFLILREKPATLIFTENEVILAFLATLSLGFVHPGVSNAFLARIDHPLVLVYGDMTTQQSAGLTALLYLLNREENRFIDLFANSGTQPFSQFLREILVETVLGTAPRLRSSLLRDLEKVAVADAVELNDIPILLAAVVILADNALALRPHAQFVNLAGLMVTEWLREAYEEEQRGMDPLVPNLRKQIYENGLGMAVDYCKVWLRPLITNIRALVPQDLYDNMEGNTEAPSMSEIQDFLVHLDSSNERWNDGSVPVIDIIRRITMHATSLDRKASKRAILNAASNRAVSGFLSRSSSMCLSPNGARMSAEVSEKKINQQPSRCEHYFSFLRLYDTYEKEGRPAAEFAAQLVFLALQLNPEYIGRYTHKGIDVCSKEECEEIAELIMKKEEAPTTAEVIASPLRDGEQTDGFILRLMEMYAERDRERERNDTLNSATNPTSNLRRTLKCYNPVYGGMYSGKKS | soluble
10 | MENLTVTGLVRLIGAGATMIYVVTDNERRTEQIATQAAARLKGAGSPYVWTCTEGFSRDGAVVEGIDDPVAAVGFALAQPGPLLFLFKDLPWFWGDNPYLIRALKDFAMRAKAKAIVVLGQQEGIPAALREEFVILQQGLPAMEEIKAFFEQARARDPQLAQACQERPGLLNDLVVAAQGLDLLDVERGMRGARAAGEAGGEGLVRSIFETKRAIIRTGGIMEFVANDVTPDQVGGMENLKQWMARREQAFGLEGISSGANLPKGVLMMGIAGCGKSLFVKAIAATWRLPLIRLDMAAVYDGSYGTPESSLRKAFRTAEAVAPCVLWIDEIEAGISTQGFKAEGGPASRILGSFLTWMQEKRAPVFVAATANAIEMLPAEIIRKGRFDEIFYIGLPETKGREEIFRIHLTRRKIGLSAFDVPLLAGSTKGFSGAEIEQAVQAAAFEALTGKRPMTQQDLMAAISRTVPLSVTMAEQIKKIEAWAFKRAVPA | soluble
11 | MAIIFNPNKKIFTLQTAHTTYQMQVDRLGYLLHLYYGAKSTCDMDYVLTYADRGFSGNPYAAGMNRTYSLDTLPQEYPTLGTGDFRNIALDIKNEQGTESVELLYKSYEIRDGKYALKGLPAVWASDDEAQTLEIVLGDDIAGVEVHLLYGVLEACDVITRSVLIKNTGSGNITIEKAHAACLDMVYGDYDVIRFYGKHAMERNLERTHLGHGTLSFGSRRGTSSHQYNPAVILAQRDTTENAGDCYGMLFVYSGNFSCEAEKDQINQTRLLMGLSDELFSYPLAAGETFTVPEVIMSYSADGFSQLSHQYHTCISEHVCRSRFAHEVRPVLINSWEAAYFDFTGDTIVDLAKEAASLGIDMVVMDDGWFGKRDDDNSSLGDWFVNEKKLGGTLSELIDRVHAQGVKFGIWIEPEMVNEDSNLYREHPDWAIQIPGKLPVRSRNQLILDFSRKEVRDNIFNQICAVFDQGKIDYVKWDMNRSMADVYAGNLAYDYVLGVYDFMERLVTRYPDILLEGCSGGGGRFDAGMLYYSPQIWCSDNTDAINRTRIQYGTSFFYPVSSMGAHVSAVPNHQTGRVTSLKTRGITAMAGTFGYELNPALLSDEEKEEIREQIKTFKKYEMLINEGTYWRLTSPFEDEVAAWMSVSRTKDRALVSVVRLYAEANAAACYVKLKGLESDAVYIEENTGRQYTGAALMNAGIPLPFAVKEYEAYQFSFIRLDEAKKLYDEIKKVCGNLKLNEADTADSASDNRLEHHHHHH | soluble
12 | MGSDKIHHHHHHMVLQHYFRHYCRSFCSPDDKALFMQCSRLTQVDFDQLTLGAQVLEADSHGAKVYLLTDGNFLKVFRRKRLISSALLRPYSQRFVDNAARLAQLGIPTLEVISQHKLDLPGRTAVLYRPLPGRTLLQMSRDDGFSWDTYLPRLIELIRQLHRSGVYFRSLHLGNVVVTPDQRLGLIDVADMRFLRPPLSARMIRRNVQHMVRYIERENLGDRFPLAAFEAALLTR | not soluble
13 | MSLAQIVNTERHSRLLPAPSSFEEGVVKFGDKEINIGGPLPTLAKDEKLVRVTHSLCPACYRLLPATIFEKEGKLFIRKICPEHGEFEDLYYADSSLYYKFDYWEYEGKGPKVPYVDLKSPCPYNCGLCPMHHQHSALVNLVITNRCDLSCWYCFFYAEKAGYVYEPTLEQIKFMVDQLKKQDITLVIQVTGGEPTLREDIIEIIKMLRENGVKHIQLNSWGGTFAKLYLEDPDKAIKYARALREAGVNTVYMSFDGTTRKTNPKNHWEIPYTLEVFRRAGMTSVVLVPTVIKTVNDNDLGNIVKFAAYNMDVVRSVNFQPVSLTGMMKRNMRAKFRITIPEVIKNIEEQTDGEITKDSWYPIGTSVVFSRLVEALTGKEQFEMANHPSCGAGTYVYVEWRNHEPHFIPISKFIDLEGLLEYLKEKEEELREGANKVWVASKVLYSIRKFIDKEQGPKDFDVYKMLYNIIIHHNYEALGEWHYRTLFLGSMHFMDLYNYDVQRVMRCDIHYVVPDGRVIPFCTYNVLNDLYRDKVLREYQIPLDKWTKEHGENSLGDAIKYKRIASTLENSEIYKNTYKSFQQMEGHHHHHH | not soluble
14 | MKIEKTSNFAPINLLYKKKTSFNSRGIFLIIAFNNSSFNLIYKNNNKSYKSTRLNTILRKKNRVIEQVLDKDIIVVPLGGLGEIGMNCMLIGSKKRFILIDCGIMFTDLSHLGIQKVIPDINFLTHIQNLIEGLIITHGHEDHIGAINWVLPILRTDALVYTSRFVYNIISKRIDKQNYLFKKLFRIFDLKKRFQLGPFECEAFRVTHSIPDCCGFVIRSKYGLIVHTGDWKIDEFPLDGEKFDREFLESISKEKVLLMMSDSTNSLSHGRTASEKVVQDSLVSIITNPKIKGRIITTQFASNVFRLYSIKKAADISKKKICFLGTSLNSYLDASLLDGRAPFHPSELVQESELKNIDPDKIIIVTTGSQGEARSTLNLSSLDLSPRLSLNPYDTIIYSAKIIPGNDKKVVRMLNRISSHGCKIIYGNQAKIHTSGHAYEDELKEILKIVKPSYFLPVHGELISLNVHSSIALQNCGIKNTIVMRNGQVLSLESDNQNPLGFKLFNLSGEINLVNHYNTGSSILGSYADIGISDKIKISNEGIILISLEFVRIKESDTYVSFKSKLRISSRGIWIDRGKLNFIIKKLLFNILNKCRTNISIISLEQIISETMNYSCYKINRSNPEIIVYANELTNI | soluble
15 | MKARIMYEAYFNLTTKPFELLPNPDFIFPSKSHKRALMYLDYGISERAGFILLTGDIGTGKTTLIRNMIQLKDERTIISRIFNTRVEPEQLLAMICHDFGIPAEGRGKVALLNELNDYLIEQFALGNRPVLIIDEAQNLSADLLEDIRLLSNLETSDTKLLQIVLVGQPELREVLALPQLLQLRQRISINCHISPLSREETEGYIFHRLDRAGNRNAVAFSSDALDIVYRYSRGIPRLVNIICDFILLSAFAEQTTEIPGEMVRDIIGDLDFENHYWGGAEVAASERAPEAARLAPGRSDEATELVATLRAVIDRLESLEGDFARMSRGVLDEMSEKVASLENAFRFHVDETDSHISEIRRRIEKVQNLEVGTTGECQPQDSPKGLLKRMFGALEHHHHHH | not soluble
